# From patent US20230167185A1
# B1: 14GIIICII scFv (scFv)
# scFv: QVQLQQPGAELVMPGASVNLSCKASGYTFTDYWMHWVKQRPGQGLEWIGEIDPSDNFSNLNQNFRGKATLTVDKSSRTAFLQLSSLTSEDSAVYYCAVEDYWGQGTTLTVSSGGGGSGGGGSGGGGSGGGGSDIVMTQATPSVLVTPGEAVSISCRASRSLLHSNGITYLYWFLQRPGQSPQVLIYRMSNLVSGVPDRFSGSGSGTAFTLRISRVEAEDVGVYYCMQHLEFPYTFGGGTKLEIK
# B2: IBIIICI scFv (scFv)
# scFv: EVRLLQSGAALVRPGASVKLSCTASGFNIKDFNIHWVKQRPEQGLEWIGRIDPENGDAEYVPKFQVRATMTTDTSSNTVYLHLSSLTSGDTAVYYCTTGSYDLDVEYWGQGTTLTVSSGGGGSGGGGSGGGGSGGGGSELQMTQSPSSLSASLGDTVTITCHASQNINVWLSWYQQRPGNIPKLLIYKASTLHTGVPSRFRGSGSGTGFTLTISSLQPEDIATYYCQQGQSYPLTFGAGTKLELK
# Assays:
# [1] = molecular target: UU71 (Clostridium tetani (tetanus toxin))
# [2] = molecular target: UU70 (Clostridium tetani (tetanus toxin))
# [3] = molecular target: UU72 (Clostridium tetani (tetanus toxin))
# [4] = molecular target: UU24 (Clostridium tetani (tetanus toxin))
# [5] = molecular target: UU74 (Clostridium tetani (tetanus toxin))
# [6] = molecular target: UU73 (Clostridium tetani (tetanus toxin))
Binder,Kd [1],koff [1],kon [1],Kd [2],koff [2],kon [2],Kd [3],koff [3],kon [3],Kd [4],koff [4],kon [4],Kd [5],koff [5],kon [5],Kd [6],koff [6],kon [6]
B1,0.6 nM,0.00032 s⁻¹,540000 M⁻¹ s⁻¹,0.29 nM,0.00019 s⁻¹,650000 M⁻¹ s⁻¹,0.6 nM,0.00034 s⁻¹,570000 M⁻¹ s⁻¹,0.3 nM,0.0002 s⁻¹,660000 M⁻¹ s⁻¹,1.7 nM,0.00095 s⁻¹,570000 M⁻¹ s⁻¹,0.87 nM,0.00044 s⁻¹,510000 M⁻¹ s⁻¹
B2,–,< 1e-05 s⁻¹,230000 M⁻¹ s⁻¹,0.16 nM,3.7e-05 s⁻¹,230000 M⁻¹ s⁻¹,–,< 1e-05 s⁻¹,250000 M⁻¹ s⁻¹,0.12 nM,2.3e-05 s⁻¹,190000 M⁻¹ s⁻¹,0.12 nM,3.3e-05 s⁻¹,280000 M⁻¹ s⁻¹,0.34 nM,6.7e-05 s⁻¹,200000 M⁻¹ s⁻¹
